Reference: article PMC2891831, “Insight into the Mechanisms of Adenovirus Capsid Disassembly from Studies of Defensin Neutralization” (PLoS Pathogens, 2010)
“Also recorded” adds a separate entry of the source.

Assays:
HAdV species C = assay: Infection assay (hexon staining), HAdV species C; format: cell-based, human adenovirus; settings: 15 µM HD5, A549 cells, hexon staining at ~48 h, vs. no defensin
Description: To determine whether sensitivity to α-defensins is a general property of HAdVs, serotypes representative of HAdV species A–F were tested for infectivity in the presence of 15 µM HD5 or HNP1 (Figure 1). Wild type HAdVs rather than vectors were used for these studies, and infectivity was assessed by staining for hexon production. […] These studies indicate that sensitivity to α-defensins is species specific. In addition, particular HAdV serotypes are not equally sensitive to all defensins, indicating defensin sequence specificity as well.
Figure 1 Sensitivity to neutralization by alpha-defensins is AdV species specific. HAdVs were incubated with 15 µM HD5 (A) or HNP1 (B) and assessed for infectivity on A549 cells. Data are the mean of the percent infectivity compared to control cells infected with each virus in the absence of defensin for at least three independent experiments ± SD. The upper limit for quantification of this assay is 200%. […]
(§1) Prior to use in this assay, each virus stock was titrated on A549 cells. […] In parallel, wells were infected with two-fold serial dilutions of each virus to establish a standard curve for quantification with an upper limit of 200%. […] Total well fluorescence above background was quantified with ImageJ software. For each virus, samples were quantified by nonlinear regression against the standard curve using Prism software (GraphPad Software, Inc., La Jolla, CA).

[1] = test system: binding of HAdV-5 to A549 cells (CAR receptor); assay: Fiber knob competition assay: binding of labeled HAdV-5 to cells; format: cell-based, human
Description: Figure 3 HD5 antiviral activity is structure dependent. A) Ribbon representation of HD5 (PDB 1ZMP). Three disulfide bonds are numbered, and the two residues comprising the conserved salt bridge (R6 and E14) are indicated. B) Ad5.eGFP was incubated with 15 µM of each of the indicated defensins. HD5-Abu is HD5 with the six cysteines replaced with L-α-aminobutyric acid. Data are the mean percent of eGFP positive cells compared to control cells infected in the absence of defensin for at least three independent experiments ± SD. C) Binding of Alexa Fluor 488-labeled HAdV-5 to cells was assessed after incubation with or without 20 µM HD5 or HD5-Abu and in competition with 100 nM 5FK or 16 FK. Data are the mean fold increase in geometric mean fluorescence compared to cells alone and are of at least 10,000 cells from each of three independent experiments ± SD.
In order to determine the receptor-dependence of this effect, we pre-incubated cells with recombinant fiber knob from HAdV-5 (5FK) to block receptor (CAR) interactions and measured cell binding of fluorescently labeled HAdV-5 that was pre-incubated with or without HD5 or HD5-Abu (Figure 3C). Cells incubated with fiber knob from HAdV-16 (16FK), which binds CD46, served as a control. We observed that virus binding to cells was reduced 5.2-fold in the presence of 5FK compared to 16FK. […]

HAdV-19c = assay: Infection assay, HAdV-19c; format: cell-based, human adenovirus
Description: (§2) Figure 6 Neutralization determinants are located in fiber and penton base. A) Schematic of chimeric viruses. Capsid proteins are depicted in the order in which they are encoded in the virus genome for HAdV-5 (white) and HAdV-19c (grey). The variable residues in fiber (GYAR and DTET) are indicated for each construct. B) Each of the chimeric viruses was incubated with 5 µM (grey) or 10 µM (black) HD5 and assessed for infectivity on A549 cells. Data are the mean of the percent infectivity compared to control cells infected with each virus in the absence of defensin for at least three independent experiments ± SD. The upper limit for quantification of this assay is 200%.
(§3) We then combined the GYAR substitution with the PB substitution in a single construct (PB/GYAR).
as §1, with “cells. A virus concentration was chosen to produce 50–70% maximal signal in the absence of defensin as described below.” for “cells.”

PB/GYAR = assay: Infection assay, PB/GYAR virus chimera; format: cell-based, human adenovirus
Description: as §2, §3
as §1, with “cells. A virus concentration was chosen to produce 50–70% maximal signal in the absence of defensin as described below.” for “cells.”

B1: HD5: human alpha-defensin; synthetic, obtained from Peptides International; three disulfide bonds (PDB 1ZMP) (peptide, UniProt Q01523 20-94, looked up)
Defensin alpha 5: ESLQERADEATTQKQSGEDNQDLAISFAGNGLSALRTSGSQARATCYCRTGRCATRESLSGVCEISGRLYRLCCR
modifications: Defensin-5
For B1, the “sensitivity to neutralization (infectivity)” value (HAdV species C) was “sensitive”, the “interaction with CAR receptor in presence of HD5” value ([1]; 20 µM HD5, competition with 5FK) was “does not completely block the interaction with CAR receptor; also recorded: capacity of fiber to bind to CAR was not compromised by HD5 binding” and the “effect on virus binding to cells” value ([1]; virus pre-incubated with 20 µM HD5 or HD5-Abu, Alexa Fluor 488, fold increase in geometric mean fluorescence, three independent experiments) was “increased virus binding to cells; also recorded: enhanced by HD5”. The “sensitivity to HD5 neutralization” value (HAdV-19c; 5 µM and 10 µM HD5, A549 cells) was “completely resistant to neutralization”, the “defensin-resistance at higher HD5 concentration” value (HAdV-19c; 20 µM HD5, data not shown) was “confirmed the defensin-resistance” and the “sensitivity to HD5 neutralization” value (PB/GYAR; 5 µM and 10 µM HD5, A549 cells, at least three independent experiments) was “completely resistant to neutralization”. The “defensin-resistance at higher HD5 concentration” value (PB/GYAR; 20 µM HD5, data not shown) was “confirmed the defensin-resistance”.
